# Data: the RNAGym collection of RNA variant scans (doi:10.1073/pnas.2313332121)
# This sample holds only a part of the variants without activity.
# B1: TPR 5TU (parent)
# chain: GGAUCUUCUCGAUCUAACAAAAAAGACAAAUCUGCCACAAAGCUUGAGAGCAUCUUCGGAUGCAGAGGCGGCAGCCUUCGGUGGCGCGAUAGCGCCAACGUUCUCAACUAUGACACGCAAAACGCGUGCUCCGUUGAAUGGAGUUUAUCAUG
# Variants of: B1
# Assay: polymerase ribozyme fitness, log enrichment relative to wild type (log ratio); higher = more active; in vitro selection for triplet polymerase activity
# Method in brief: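 Frozen incubation at −7 °C formed the core of a single, triplicate in vitro selection round applied to PCR-built, transcribed mutant libraries of each subunit of a heterodimeric triplet polymerase ribozyme. Extended constructs were gel-excised, captured with streptavidin beads and amplified by RT-PCR, and input and output libraries were Illumina-sequenced with a filter of ≥10 input reads and ≥1 read per output. Fitness is the logarithm of genotype enrichment relative to wild-type enrichment, with inverse-variance-weighted replicate averaging, and the logarithm is base 2.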
row,Variant,polymerase ribozyme fitness (log ratio)
1,GGAUCUUCUCGAUCUAACAAAAAAGACAAAUCUGCCGCAAAGCUUGAGAGCAUCUUCGGAUGCAGAGGCGGCAGCCUUCGGUGGCGCGAUAGCGACAACGUUCUCAACUAUGACACGCAAAACGCGGGCUCCGUUGAAUGGAGUUUAUCAUG [A37G C95A U127G],-4.15
2,GGAUCUUCUCGAUCUAACAAAAAAGACAAAUCUGCCGCAAAGCUUGUGAGCAUCUUCGGAUGCAGAGGCGGCAGCCUUCGCUGGCGCGAUAGCGGCAACGUGCUCAACUAUGACACGCAUAACGCGUGCUCCGCGGCAUGGAGUUUAUCAUG [A37G A47U G81C C95G U102G A120U U134C U135G A137C],≤ -4.2
3,GGAUCUUCUCGAUCUAACAAAAAAGACAAAUCUGCCGCAAAGCUUGAGAGCAUCUUCGGAUGCAGAGGCGGCAGCCUUCGGUGGCGCGAUAGUGCCAACGUUCUCAACUAUGACACGCAAAACGCGUGCUCCGUUGAAUGGAGUUUAUCAUG [A37G C93U],-3.38
4,GGAUCUUCUCGAUCUAACAAAAAAGACAAAUCUGCCGCAAAGCUUGAGACCAUCUUCGGAUGCAGAGGCGGCAGCCUUCGGUGGCGCGAUAGCGCCAACGUUCUCAACUAUGACACGCAAAACGCGUGCUCCGUUGAAUGGAGUUUAUCAUG [A37G G50C],-3.93
5,GGAUCUUCUCGAUCUAACAAAAAAGACAAAUCUGCCGCAAAGCUUGAGAGCAUAUUCGGAUGCAGAGGCGGCAGCCUUCGGUGGCGCGAUAGCGCCAACGUUCUCAACUAUGACACGCAAAACGCGUGCUCCGUUGAAUGAAGUUUAUCAUG [A37G C54A G141A],-2.78
6,GGAUCUUCUCGAUCUAACAAAAAAGACAAAUCUGCCGCAAAGCUUGAGAGUAUCUUCGGAUGCAGAGGCGGUAGCCUUCGGUGGCGCGAUAGCGACAACGUUCUCAACUAUGACACGCAAAACGCGUGCUCCGUUGAUUGGAUUUUAUCAUG [A37G C51U C72U C95A A138U G143U],≤ -4.2
7,GGAUCUUCUCGAUCUAACAAAAAAGACAAAUCUGCCGCAAACCUUGAGAGCAUCUUCGGAUGCAGAGGCGGCAGCCUUCGGUGGCGCUAUAGCGCCAACGUUCUCAACUAUGACGCGCAAAACGCGUGCUCCGUUGAAUGGAGUUUAUCAUG [A37G G42C G88U A115G],≤ -4.2
8,GGAUCUUCUCGAUCUAACAAAAAAGACAAAUCUGCCGCAAAGCUUGAGAGCAUCUUCCGAUGCAGAGGCGGCAGCCUUCGGUGGAGCGAUAGCGCCAACGUUCUCAACUAUGACACGCAAAACGCGUGCUCCGUUGAAUGGAGUUUAUCAUG [A37G G58C C85A],-3.83
9,GGAUCUUCUCGAUCUAACAAAAAAGACAAAUCUGCCGCAAAGCUUGAGAGCGUCAACGGAUGCAGAGGCGGCAGCCUUCGGUGGUGCGAUAGCGCCAACGUUUUCAACUAUGACACGCAAAACGCGUGCUCCGUUGAAUGGAGUAUAUCAUG [A37G A52G U55A U56A C85U C103U U145A],-3.09
10,GGAUCUUCUCGAUCUAACAAAAAAGACAAAUCUGCCGCAAAGCUUGAGAGCAUCUUCGGAUGCGGAGGCGGCAGCCUUCAGUGGCGCUAUAGCGCCAACGUUCUCAACUAUGACACGCAAAACGCGUGCUCCGUUGAAUGGAAUUUAUCAUG [A37G A64G G80A G88U G143A],≤ -4.2
11,GGAUCUUCUCGAUCUAACAAAAAAGACAAAUCUGCCGCAAAGCUUGAGAGCAUCUUCGGAUGCAGAGGCGGCAGCCUUCGGUGGCGCGAUAGCGCUAACGUUCUGAACUAUGACACGCAAAACGCGUGCUCCGUUGAAUGGAGUUUAUCAUG [A37G C96U C105G],-3.63
12,GGAUCUUCUCGAUCUAACAAAAAAGACAAAUCUGCCGCAAAGCUUGAGAGCCUCUUCGGAUGCAGAGGCGGCAGCCUUCGGUGGCGCGAUAGCGCCCACGUUCUCAACUAUGACACGCAAAACGCGUGCUCCGUUGAAUGGAGUUUAUCAUG [A37G A52C A97C],-3.67
13,GGAUCUUCUCGAUCUAACAAAAAAGACAAAUCUGCCGCUAAGCUUGAGAGCAUCUUCCGAUAUUGAGGCGGCAGCCAUCGGUGGCGGGAUAGCGCCAACGUUGUCAACUAUGACACGCAAAACGCGUGCUCCGUUGAAUGGAGUUUAUCUUG [A37G A39U G58C G62A C63U A64U U77A C87G C103G A150U],≤ -4.2
14,GGAUCUUCUCGAUCUAACAAAAAAGACAAAUCUGCCGAAAAGCUUGAUAGCAUCUUCGGAUGCAGAGGCGGCAGCCUUCGGUGGCGCGAUAGCGCCAACGUUCUCAACUAUGACACGCAAAACGCGUGCUCCGUUGAAUGGAGUUUAUCAUG [A37G C38A G48U],-2.25
15,GGAUCUUCUCGAUCUAACAAAAAAGACAAAUCUGCCGCAAAGCUUGAGAGCAUCUUCGGAUGCAGAGGCGGCAGCCUUCGGUGGCGCGAUAGUGCCAACGUUCUCAACUAUGACACACAAAACGCGUACUCCGUUGAAUGGAGUUUAUCAUG [A37G C93U G117A G128A],-4.18
16,GGAUCUUCUCGAUCUAACAAAAAAGACAAAUCUGCCGCAAAGCUUGAGAGCAUCUUCGGAUGCAGAGGCGGCAGCCUUCGGUGGCGCGAUCGCGCCAACGUUCUCAACUAUGACACGCAAAACGCGUGCUCCGUUGACUUGAGUUUAUCAUG [A37G A91C A138C G140U],≤ -4.2
17,GGAUCUUCUCGAUCUAACAAAAAAGACAAAUCUGCCGCAAAGCUUGAGAGCAUCUUCGGAUGCAGAGGCGGCAGCCUUCGGUGGUGCGAUAGCGCCAACGUUCUCAACUAUGACACGCAAAACGCGUGCUCCGUUGAAUGGAGUUUAUCAUG [A37G C85U],-2.1
18,GGAUCUUCUCGAUCUAACAAAAAAGACAAAUCUGCCGCAAAGCUUGAGAGCAUCUUCGGGUGCAGAGGCGGCAGCCUUCGGUCGCGCGAUAGCGCUAACGUUCUCAACUAUGACACGCAAAACGCGUGCUCCGUUGAAUGUAGUUUAUCAUG [A37G A60G G83C C96U G141U],-2.58
19,GGAUCUUCUCGAUCUAACAAAAAAGACAAAUCUGCCGCAAAGCUUGAGAGCAUCUUCGGAUGCAGAGGCGGCAGCCUUCGGUGGCGCGAUAGCGGCAACGUUCUCAACUAUGAUACGCUGAACGCGUGCUCCGUUGAAUGGAGUUUAUCAUG [A37G C95G C114U A119U A120G],≤ -4.2
